Assay results published in patent publication US20170174769A1 (Regeneron, published 2017).

What was measured:
[1] = molecular target: T1, extracellular domain of human FGFR1c expressed with C-terminal V5 and hexahistidine tags (human, UniProt P11362 22-376); test: SPR, mAb captured, 37 C
T1 construct: also called hFGFR1c-V5-6His
T1 sequence: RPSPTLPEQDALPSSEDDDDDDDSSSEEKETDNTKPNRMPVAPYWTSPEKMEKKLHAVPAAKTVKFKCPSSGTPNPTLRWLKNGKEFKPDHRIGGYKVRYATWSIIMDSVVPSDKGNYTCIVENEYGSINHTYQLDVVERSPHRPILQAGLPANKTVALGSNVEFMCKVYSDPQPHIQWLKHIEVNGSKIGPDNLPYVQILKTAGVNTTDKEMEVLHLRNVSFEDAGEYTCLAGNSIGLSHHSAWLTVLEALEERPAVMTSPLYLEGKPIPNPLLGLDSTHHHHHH
Description: (§1) Equilibrium dissociation constants (KD values) for human KLB or human FGFR1c binding to purified anti-KLB/FGFR1c monoclonal antibodies were determined using a real-time surface plasmon resonance biosensor using a Biacore T-200 or 4000 instrument. The Biacore sensor surface was derivatized by amine coupling with either a polyclonal rabbit anti-mouse antibody (GE, # BR-1008-38) or with a monoclonal mouse anti-human Fc antibody (GE, # BR-1008-39) to capture anti-KLB/FGFR1c monoclonal antibodies expressed with either a mouse Fc or a human Fc, respectively. All Biacore binding studies were performed in a buffer composed of 0.01M HEPES pH 7.4, 0.15M NaCl, 3mM EDTA, 0.05% v/v Surfactant P20 (HBST running buffer). […] Association of hKLB-HA-6His or hFGFR1c-V5-6His to the captured monoclonal antibody was monitored for 3.5 to 4 minutes and the dissociation of hKLB-HA-6His or hFGFR1c-V5-6His in HBST running buffer was monitored for 8-12 minutes. All the binding kinetics experiments were performed at 25° C. or 37° C. Kinetic association (kₐ) and dissociation (kd) rate constants were determined by fitting the real-time sensorgrams to a 1:1 binding model using Scrubber 2.0c curve fitting software. Binding dissociation equilibrium constants (KD) and dissociative half-lives (t½) were calculated from the kinetic rate constants as: […]

[2] = molecular target: T2, extracellular domain of human KLB expressed with C-terminal HA and hexahistidine tags (human, UniProt Q86Z14 1-996); test: SPR, mAb captured, 37 C
T2 construct: also called hKLB-HA-6His; hKLB-HA-6his
T2 sequence: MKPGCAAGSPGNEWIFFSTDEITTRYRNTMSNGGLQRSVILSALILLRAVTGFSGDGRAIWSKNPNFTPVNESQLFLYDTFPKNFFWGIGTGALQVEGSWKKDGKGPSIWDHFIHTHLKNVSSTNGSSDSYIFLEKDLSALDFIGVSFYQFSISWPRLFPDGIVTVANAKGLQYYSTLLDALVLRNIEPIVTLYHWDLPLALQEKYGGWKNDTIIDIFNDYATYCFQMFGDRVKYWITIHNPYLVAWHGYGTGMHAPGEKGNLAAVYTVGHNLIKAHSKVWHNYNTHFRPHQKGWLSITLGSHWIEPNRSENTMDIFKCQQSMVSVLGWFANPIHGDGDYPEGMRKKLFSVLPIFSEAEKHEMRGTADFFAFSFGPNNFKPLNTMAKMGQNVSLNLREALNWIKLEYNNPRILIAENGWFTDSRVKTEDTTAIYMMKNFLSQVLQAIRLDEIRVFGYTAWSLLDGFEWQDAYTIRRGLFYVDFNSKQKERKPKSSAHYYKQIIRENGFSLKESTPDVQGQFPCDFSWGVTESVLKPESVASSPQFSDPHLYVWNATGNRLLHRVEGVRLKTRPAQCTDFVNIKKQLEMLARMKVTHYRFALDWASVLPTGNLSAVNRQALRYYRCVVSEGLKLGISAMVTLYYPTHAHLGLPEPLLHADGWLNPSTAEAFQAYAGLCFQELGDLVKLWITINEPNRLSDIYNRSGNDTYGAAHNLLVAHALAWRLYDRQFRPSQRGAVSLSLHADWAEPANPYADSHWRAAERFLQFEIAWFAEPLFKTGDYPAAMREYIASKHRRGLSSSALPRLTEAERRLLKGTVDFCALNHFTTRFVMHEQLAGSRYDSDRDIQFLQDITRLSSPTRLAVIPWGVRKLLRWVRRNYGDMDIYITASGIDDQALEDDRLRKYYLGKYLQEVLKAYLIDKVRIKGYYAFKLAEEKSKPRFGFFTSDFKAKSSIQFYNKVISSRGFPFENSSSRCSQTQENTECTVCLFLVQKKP
Description: as §1

[3] = molecular target: T1, extracellular domain of human FGFR1c …; test: SPR, mAb captured, 25 C
Description: as §1

[4] = molecular target: T2, extracellular domain of human KLB …; test: SPR, mAb captured, 25 C
Description: as §1

[5] = molecular target: T3, human KLB and human FGFR1c co-expressed on HEK293/hKLB/hFGFR1c/SRE-luc cells (human, UniProt Q86Z14 1-1044; P11362 22-822); test: cell-based or functional assay
[6] = molecular target: T3, human KLB and human FGFR1c co-expressed …; test: cell-based or functional assay; remark: listed apart in the source

B1: H2aM8832N (antibody, V domains shown)
VH: QVQLVESGGGVVQPGRSLRLSCAASGFTFSRYGMHWVRQAPGKGLEWVAVIWYDGTNKYYEDSLKGRFTISRDNSKNTLYLQMNSLRAEDSAVYYCARDQGKYIDYWGQGTLVTVSS
VL: AIQMTQSPSSLSASVGDRVTITCRTSQDIRNDLGWYQQKPGKVPNLLIYAASTLQSGVPSRFSGSGSGTDFTLTISSLQPEDFATYYCLQDYNYPFTFGPGTKVDIK
notes: mouse IgG2 Fc (H2aM prefix)
[1]
  180 nM hFGFR1c-V5-6His Bind (RU): 2.3 RU
[2]
  20 nM hKLB-HA-6His Bind (RU): -0.7 RU
[3]
  180 nM hFGFR1c-V5-6His Bind (RU): 5.8 RU
[4]
  20 nM hKLB-HA-6His Bind (RU): -0.2 RU
[5]
  EC50, SRE-luc activation without ligand: 750 pM
  Maximum Activation (%) without ligand: 4%

B2: H1M8115N (antibody, V domains shown)
VH: QVQLVQSGAEVKKPGSSVKVSCKASGGTFSTYEISWVRQAPGQGLEWMGGIIPVFGTTHYAQKFQDSVTITTDESTGTAFMELSSLKSEDTAVYYCARGGAGGDNWGQGTLVTVSS
VL: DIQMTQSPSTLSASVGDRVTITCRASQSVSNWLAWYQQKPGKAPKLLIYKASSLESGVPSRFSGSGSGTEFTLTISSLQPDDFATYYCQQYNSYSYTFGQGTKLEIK
notes: H1M Fc prefix (mouse Fc)
[1]
  180 nM hFGFR1c-V5-6His Bind (RU): 0.4 RU
[2]
  20 nM hKLB-HA-6His Bind (RU): 118 RU
  Kd: 206 pM
  koff: 0.000144 s⁻¹
  kon: 699000 M⁻¹ s⁻¹
  t1/2: 80.3 min
[6]
  IC50, inhibition of 1 nM hFGF21: 90 pM
  Maximum Inhibition (%) of 1 nM hFGF21: 65%
[3]
  180 nM hFGFR1c-V5-6His Bind (RU): -1.8 RU
[4]
  20 nM hKLB-HA-6His Bind (RU): 77.6 RU
  Kd: 110 pM
  koff: 5.02e-05 s⁻¹
  kon: 455000 M⁻¹ s⁻¹
  t1/2: 230 min
[5]
  EC50, SRE-luc activation without ligand: 53 pM
  Maximum Activation (%) without ligand: 1%

B3: H2aM8093N (antibody, V domains shown)
VH: QVQLVQSGAEVKRPGSSVKVSCKASGDTFSTYAISWVRQAPGQGLEWMGGIIPVFGTTNYAQKFQDRVTITTDESTRTAYMELSSLRSEDTAVYYCAGIAGPDYWGQGTLVTVSS
VL: DIQMTQSPSSLSASVGDRVTITCRASQGIRNYLAWFQQKPGKAPKSLIYLATSLQSGVPSKFSGSGSGTDFTLTISSLQPEDFATYYCQQYYSYPWTFGQGTKVEIK
notes: mouse IgG2 Fc (H2aM prefix)
[1]
  180 nM hFGFR1c-V5-6His Bind (RU): 0.6 RU
[2]
  20 nM hKLB-HA-6His Bind (RU): 211 RU
  Kd: 222 pM
  koff: 0.00018 s⁻¹
  kon: 812000 M⁻¹ s⁻¹
  t1/2: 64.1 min
[6]
  IC50, inhibition of 1 nM hFGF21: 67 pM
  Maximum Inhibition (%) of 1 nM hFGF21: 65%
[3]
  180 nM hFGFR1c-V5-6His Bind (RU): -1.2 RU
[4]
  20 nM hKLB-HA-6His Bind (RU): 147 RU
  Kd: 218 pM
  koff: 9.8e-05 s⁻¹
  kon: 449000 M⁻¹ s⁻¹
  t1/2: 118 min
[5]
  EC50, SRE-luc activation without ligand: 68 pM
  Maximum Activation (%) without ligand: 1%

B4: H1H8899P (antibody, V domains shown)
VH: EVQLVESGGGLVQPGGSLRLSCAASGFTFSSHWMSWVRQAPGKGLEWVANIKQDGSEKYYVDSVKGRFTISRDNAKNSLYLQISSLRAEDTAVYYCASNWNFLFDFWGQGTLVTVSS
VL: not shown
[1]
  180 nM hFGFR1c-V5-6His Bind (RU): 2.8 RU
[2]
  20 nM hKLB-HA-6His Bind (RU): -0.1 RU
[6]
  IC50, inhibition of 1 nM hFGF21: 40 pM
  Maximum Inhibition (%) of 1 nM hFGF21: 20%
[3]
  180 nM hFGFR1c-V5-6His Bind (RU): 2.4 RU
  binding result: no binding (tested: 180 nM)
[4]
  20 nM hKLB-HA-6His Bind (RU): 0.5 RU

B5: H4H8859P (antibody, V domains shown)
VH: EVQLVESGGSVVRPGGSLRLSCAASGFTFDVYGMSWVRQAPGKGLEWVSGINWIGGSTGYADSVKGRFTISRDNAKNSLYLQMNSLRAEDTALYYCTREEDYWGQGTLVTVSS
VL: DVVMTQSPLSLAVTLGQPASISCRSSQSLVYSDGNTYLNWFQQRPGQSPRRLFYKVSNRDSGVPDRFSGSGSGTDFTLKISRVEAEDVGIYYCMQGIKWPLTFGGGTKVEIK
notes: human IgG4 Fc (H4H prefix)
[1]
  180 nM hFGFR1c-V5-6His Bind (RU): 6.8 RU
  Kd: 497000 pM
  koff: 0.0382 s⁻¹
  kon: 76800 M⁻¹ s⁻¹
  t1/2: 0.3 min
[2]
  20 nM hKLB-HA-6His Bind (RU): 0.8 RU
[3]
  180 nM hFGFR1c-V5-6His Bind (RU): 4.9 RU
  Kd: 352000 pM
  koff: 0.0536 s⁻¹
  kon: 152000 M⁻¹ s⁻¹
  t1/2: 0.22 min
[4]
  20 nM hKLB-HA-6His Bind (RU): -0.8 RU

B6: H2aM8109N (antibody, V domains shown)
VH: QVQVVESGGGVVQPGRSLRLSCAASGFTFSSYGLHWVRQAPGKGLEWVAVIWHDGSHKYYADSVKGRFTISRDNSKNTLYLQMNSLRAEDTAVYYCARDGIPVAEDYYFYGMDVWGQGTTVTVSS
VL: DIQMTQSPSSLSASVGDRVTITCRASQGIRNDLGWYQQKPGKAPKRLIYAASSLQSGVPSRFSGSGSGTEFTLTISSLQPEDFAIYYCLQHNSLTFGGGTKVEIK
notes: mouse IgG2 Fc (H2aM prefix)
[1]
  180 nM hFGFR1c-V5-6His Bind (RU): 0.7 RU
[2]
  20 nM hKLB-HA-6His Bind (RU): 36.8 RU
  Kd: 6200 pM
  koff: 0.00131 s⁻¹
  kon: 211000 M⁻¹ s⁻¹
  t1/2: 8.8 min
[6]
  IC50, inhibition of 1 nM hFGF21: 33 pM
  Maximum Inhibition (%) of 1 nM hFGF21: 23%
[3]
  180 nM hFGFR1c-V5-6His Bind (RU): -0.7 RU
[4]
  20 nM hKLB-HA-6His Bind (RU): 21.3 RU
  Kd: 4440 pM
  koff: 0.000449 s⁻¹
  kon: 101000 M⁻¹ s⁻¹
  t1/2: 25.7 min
[5]
  EC50, SRE-luc activation without ligand: 3300 pM
  Maximum Activation (%) without ligand: 0.5%
